Target: T1, SipD^C244S (residues 39-343 C244S) (Salmonella, UniProt Q56026 39-343, C244S)
T1 sequence: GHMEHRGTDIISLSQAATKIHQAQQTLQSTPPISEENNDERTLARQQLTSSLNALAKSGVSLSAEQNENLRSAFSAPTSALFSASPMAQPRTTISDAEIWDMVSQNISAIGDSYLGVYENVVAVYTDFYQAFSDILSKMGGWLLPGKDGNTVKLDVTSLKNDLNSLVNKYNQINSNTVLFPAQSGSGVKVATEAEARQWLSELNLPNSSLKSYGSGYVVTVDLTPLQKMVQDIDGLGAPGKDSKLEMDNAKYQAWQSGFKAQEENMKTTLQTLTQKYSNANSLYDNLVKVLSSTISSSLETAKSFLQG
Test: NMR titration

B1: SipB^11-232 (domain or fragment)
chain: SGYTQNPRLAEAAFEGVRKNTDFLKAADKAFKDVVATKAGDLKAGTKSGESAINTVGLKPPTDAAREKLSSEGQLTLLLGKLMTLLGDVSLSQLESRLAVWQAMIESQKEMGIQVSKEFQTALGEAQEATDLYEASIKKTDTAKSVYDAATKKLTQAQNKLQSLDPADPGYAQAEAAVEQAGKEATEAKEALDKATDATVKAGTDAKAKAEKADNILTKFQG
B1: binds.
